Numbering of substitutions follows the chain as printed. Names and notes keep the numbering of the source.
B1: h3G10.A57 VH / h3G10.2.72 VL Fab (Fab, V domains shown)
VH: EVQLVESGGGLVQPGGSLRLSCAASGFTFSDYYMSWVRQAPGKGLEWVGFIRHKANFYTTEYSTSVKGRFTISRDDSKNSLYLQMNSLKTEDTAVYYCARDLPGFAYWGQGTLVTVSS
VL: DIVMTQSPDSLAVSLGERATINCKSSQSLFNSRTRKNYLAWYQQKPGQPPKLLIYWASARESGVPDRFSGSGSGTDFTLTISSLQAEDVAVYYCKQSFRLRTFGGGTKVEIK
notes: Tested as Fab
B2: h3G10.A57 VH / h3G10.A58A VL Fab (Fab, V domains shown)
VH: B1 VH
VL: B1 VL with R33H, E61G
notes: Tested as Fab
B3: h3G10.1.60 VH / h3G10.2.72 VL Fab (Fab, V domains shown)
VH: B1 VH with F57V
VL: B1 VL
notes: Tested as Fab
B4: h3G10.A57 VH / h3G10.2.25 VL Fab (Fab, V domains shown)
VH: B1 VH
VL: B1 VL with K24R
notes: Tested as Fab
B5: h3G10.2.37 VH / h3G10.2.72 VL Fab (Fab, V domains shown)
VH: B1 VH with T60R
VL: B1 VL
notes: Tested as Fab
B6: h3G10 VH / h3G10 VL Fab (Fab, V domains shown)
VH: B1 VH with F57G
VL: B1 VL with R99N
notes: Tested as Fab; also called h3G10 Fab
B7: h3G10.B44 VH / h3G10.A58A VL Fab (Fab, V domains shown)
VH: B1 VH with G49S, D76N, S80T, K89R, T90A, R100K
VL: B1 VL with R33H, E61G
notes: Tested as Fab
B8: h3G10.3.25 VH / h3G10.2.72 VL Fab (Fab, V domains shown)
VH: B1 VH with V66D
VL: B1 VL
notes: Tested as Fab
B9: h3G10.1.7 VH / h3G10.2.72 VL Fab (Fab, V domains shown)
VH: B1 VH with F57K
VL: B1 VL
notes: Tested as Fab
B10: h3G10.2.54 VH / h3G10.2.72 VL Fab (Fab, V domains shown)
VH: B1 VH with K67R
VL: B1 VL
notes: Tested as Fab
B11: h3G10.2.5 VH / h3G10.2.72 VL Fab (Fab, V domains shown)
VH: B1 VH with F57I
VL: B1 VL
notes: Tested as Fab
B12: h3G10.A57 VH / h3G10 VL Fab (Fab, V domains shown)
VH: B1 VH
VL: B1 VL with R99N
notes: Tested as Fab; also called h3G10.A57 VH / h3G10 L
B13: h3G10.2.42 VH / h3G10.2.72 VL Fab (Fab, V domains shown)
VH: B1 VH with A55V
VL: B1 VL
notes: Tested as Fab
B14: h3G10.2.45 VH / h3G10.2.72 VL Fab (Fab, V domains shown)
VH: B1 VH with S65W
VL: B1 VL
notes: Tested as Fab
B15: h3G10.1.91 VH / h3G10.2.72 VL Fab (Fab, V domains shown)
VH: B1 VH with Y58E
VL: B1 VL
notes: Tested as Fab
B16: h3G10.1.33 VH / h3G10.2.72 VL Fab (Fab, V domains shown)
VH: B1 VH with K67T
VL: B1 VL
notes: Tested as Fab
B17: h3G10.2.37 VH / h3G10.A58B VL Fab (Fab, V domains shown)
VH: B1 VH with T60R
VL: B1 VL with R33H, E61G, R99N
notes: Tested as Fab
B18: h3G10.1.91 VH / h3G10.A58A VL Fab (Fab, V domains shown)
VH: B1 VH with Y58E
VL: B1 VL with R33H, E61G
notes: Tested as Fab
B19: h3G10.1.91 VH / h3G10.A58B VL Fab (Fab, V domains shown)
VH: B1 VH with Y58E
VL: B1 VL with R33H, E61G, R99N
notes: Tested as Fab
B20: h3G10.A57 VH / h3G10.A58B VL Fab (Fab, V domains shown)
VH: B1 VH
VL: B1 VL with R33H, E61G, R99N
notes: Tested as Fab
B21: h3G10.2.37 VH / h3G10.A58A VL Fab (Fab, V domains shown)
VH: B1 VH with T60R
VL: B1 VL with R33H, E61G
notes: Tested as Fab
B22: humanized anti-CXCR4 antibody h3G10.A57 (antibody, V domains shown)
VH: B1 VH
VL: B1 VL with R99N
B23: humanized anti-CXCR4 antibody h3G10 (antibody, V domains shown)
VH: B1 VH with F57G
VL: B1 VL with R99N
B24: humanized anti-CXCR4 antibody h3G10.A57.A58A (antibody, V domains shown)
VH: B1 VH
VL: B1 VL with R33H, E61G
B25: humanized anti-CXCR4 antibody h3G10.1.91.A58A (antibody, V domains shown)
VH: B1 VH with Y58E
VL: B1 VL with R33H, E61G
B26: humanized anti-CXCR4 antibody h3G10.2.37.2.72 (antibody, V domains shown)
VH: B1 VH with T60R
VL: B1 VL

Each binder was assayed against T1, human CXCR4 (chemokine (C-X-C motif) receptor 4) (human, UniProt P61073 1-352) (assay: flow cytometry on HPB-ALL cells, Fab at 2.5 µg/ml).
T1 construct: Endogenous on human tumour cell lines (Ramos, HPB-ALL, Raji, Jurkat, MM1.S, RPMI-8226, MOLP-8, MOLT-4) or transfected into CHO-K1 cells (DiscoveRx); also called CXCR4 receptor
T1 sequence (P61073 whole entry): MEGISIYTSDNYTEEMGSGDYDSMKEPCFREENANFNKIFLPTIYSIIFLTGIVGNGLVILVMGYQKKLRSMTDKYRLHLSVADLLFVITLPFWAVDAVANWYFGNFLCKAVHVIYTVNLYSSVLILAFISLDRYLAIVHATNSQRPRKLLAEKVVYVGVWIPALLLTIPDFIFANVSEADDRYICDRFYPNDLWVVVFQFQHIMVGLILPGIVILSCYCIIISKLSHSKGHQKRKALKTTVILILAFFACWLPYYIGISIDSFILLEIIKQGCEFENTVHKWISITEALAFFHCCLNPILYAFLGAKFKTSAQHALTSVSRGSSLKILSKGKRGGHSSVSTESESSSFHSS

Binder | MFI
B1 | 4330
B2 | 7400
B3 | 2810
B4 | 5000
B5 | 6240
B6 | 2460
B7 | 9410
B8 | 2680
B9 | 4120
B10 | 4610
B11 | 2790
B12 | 4060
B13 | 4720
B14 | 2780
B15 | 7020
B16 | 4140

Each binder was assayed against T2, human CXCR4-enriched lipoparticles (LEV101, Integral Molecular) (human, UniProt P61073 1-352) (assay: biosensor kinetic titration, Fab over captured human CXCR4 lipoparticles).
T2 construct: Bought reagent; CXCR4 held in lipoparticles captured by biotinylated WGA on an SA chip; also called Lipoparticles containing CXCR4 proteins
Protocol: The binding affinity of each Fab was determined using human CXCR4-enriched lipoparticles (LEV101, Integral Molecular, Philadelphia Pa.). Biotinylated WGA (Sigma Aldrich, St. Louis Mo.)) can be coated on the SA chip to facilitate capturing lipoparticles containing CXCR4 proteins. […] J. Mol. Recognit.

T2 sequence (P61073 whole entry): as above

Binder | Kd [nM] | koff [s⁻¹] | kon [M⁻¹ s⁻¹] | t½ [min]
B1 | 1.12 | 0.0013 | 1.1e+06 | 9
B2 | 0.39 | 0.00063 | 1.6e+06 | 18.2
B5 | 0.35 | 0.0008 | 2.3e+06 | 14.4
B6 | 1.9 | 0.003 | 1.6e+06 | 3.9
B17 | 0.56 | 0.000449 | 797000 | 25.7
B18 | 0.38 | 0.000341 | 908000 | 33.9
B19 | 0.36 | 0.000286 | 803000 | 40.4
B20 | 0.75 | 0.000515 | 688000 | 22.4
B21 | 0.32 | 0.000418 | 1.29e+06 | 27.6
B12 | 1.22 | 0.00143 | 1.17e+06 | 8.08
B15 | 0.33 | 0.00049 | 1.5e+06 | 23.5

The binders below were run against T1, human CXCR4 (chemokine (C-X-C motif) …) (assay: flow cytometry on HPB-ALL cells, Fab at 0.25 µg/ml).

Binder | MFI
B1 | 1220
B2 | 3610
B3 | 396
B4 | 1380
B5 | 2920
B6 | 563
B7 | 5120
B8 | 454
B9 | 768
B10 | 1740
B11 | 390
B12 | 868
B13 | 1760
B14 | 929
B15 | 2670
B16 | 848

These binders were tested against T1, human CXCR4 (chemokine (C-X-C motif) …) (assay: cell-based or functional assay).

Binder | IC50 (M), Calcium Flux Activity (average of 3 experiments) [M]
B22 | 1.69e-09
B23 | 2e-09
B24 | 1.31e-09
B25 | 2.35e-09
B26 | 1.36e-09

These binders were tested against T1, human CXCR4 (chemokine (C-X-C motif) …) (assay: flow cytometry on HPB-ALL cells, Fab at 0.25 µg/mL).
Protocol: Binding of CXCR4 Fabs to CXCR4-expressing cells were measured by flow cytometry on HPB-ALL (Human T cell leukemia) cells. 150,000 HPB-ALL cells were resuspended in 100 uL FACS buffer (1×PBS+0.5% BSA) on 96 well plates. […] After removing the primary antibodies the cells were washed twice with FACS buffer and then resuspended in FACS buffer and 2 uL (3 ug) of 2nd Ab (Alexa Fluor 647-conjugated goat anti-human IgG, F(ab′)2 specific, Jackson ImmunoResearch Laboratories, West Grove Pa.) was then added to each well. The plates were incubated at 4 degree for another 30 min. Fluorescence signals were acquired by cell analyzer LSRII (BD Biosciences, San Jose Calif.).

Binder | MFI
B1 | 2770
B2 | 3890
B5 | 2890
B6 | 1360
B17 | 4550
B18 | 5050
B19 | 4630
B20 | 3090
B21 | 4070
B12 | 1340
B15 | 2350

Target: T1, human CXCR4 (chemokine (C-X-C motif) …)
Assay: cell-based or functional assay
Remark: another data set of the same source

Binder | EC50 (M), cAMP assay, CHO-K1 cells transfected with human CXCR4 [M]
B24 | 2.43e-08
B26 | 3.41e-08

From US20150037328A1 (Pfizer, published 2015)
